# Data: IntAct's records for PubMed 31515488
# B1: STAM-binding protein (Homo sapiens), O95630 (parent)
# chain: MSDHGDVSLPPEDRVRALSQLGSAVEVNEDIPPRRYFRSGVEIIRMASIYSEEGNIEHAFILYNKYITLFIEKLPKHRDYKSAVIPEKKDTVKKLKEIAFPKAEELKAELLKRYTKEYTEYNEEKKKEAEELARNMAIQQELEKEKQRVAQQKQQQLEQEQFHAFEEMIRNQELEKERLKIVQEFGKVDPGLGGPLVPDLEKPSLDVFPTLTVSSIQPSDCHTTVRPAKPPVVDRSLKPGALSNSESIPTIDGLRHVVVPGRLCPQFLQLASANTARGVETCGILCGKLMRNEFTITHVLIPKQSAGSDYCNTENEEELFLIQDQQGLITLGWIHTHPTQTAFLSSVDLHTHCSYQMMLPESVAIVCSPKFQETGFFKLTDHGLEEISSCRQKGFHPHSKDPPLFCSCSHVTVVDRAVTITDLR
# partner: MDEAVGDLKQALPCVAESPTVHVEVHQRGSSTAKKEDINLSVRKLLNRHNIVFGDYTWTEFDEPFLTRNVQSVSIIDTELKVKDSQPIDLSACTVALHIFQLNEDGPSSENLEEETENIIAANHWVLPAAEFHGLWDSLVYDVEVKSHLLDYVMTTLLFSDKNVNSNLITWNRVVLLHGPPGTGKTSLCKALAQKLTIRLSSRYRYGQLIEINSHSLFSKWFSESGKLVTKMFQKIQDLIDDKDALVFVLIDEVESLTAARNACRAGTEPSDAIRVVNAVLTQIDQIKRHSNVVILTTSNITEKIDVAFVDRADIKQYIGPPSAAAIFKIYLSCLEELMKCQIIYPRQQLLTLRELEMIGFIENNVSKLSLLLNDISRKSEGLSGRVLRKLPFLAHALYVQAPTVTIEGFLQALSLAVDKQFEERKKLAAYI
# B2: Farnesyl pyrophosphate synthase (Homo sapiens), P14324 (parent)
# chain: MPLSRWLRSVGVFLLPAPYWAPRERWLGSLRRPSLVHGYPVLAWHSARCWCQAWTEEPRALCSSLRMNGDQNSDVYAQEKQDFVQHFSQIVRVLTEDEMGHPEIGDAIARLKEVLEYNAIGGKYNRGLTVVVAFRELVEPRKQDADSLQRAWTVGWCVELLQAFFLVADDIMDSSLTRRGQICWYQKPGVGLDAINDANLLEACIYRLLKLYCREQPYYLNLIELFLQSSYQTEIGQTLDLLTAPQGNVDLVRFTEKRYKSIVKYKTAFYSFYLPIAAAMYMAGIDGEKEHANAKKILLEMGEFFQIQDDYLDLFGDPSVTGKIGTDIQDNKCSWLVVQCLQRATPEQYQILKENYGQKEAEKVARVKALYEELDLPAVFLQYEEDSYSHIMALIEQYAAPLPPAVFLGLARKIYKRRK
# partner: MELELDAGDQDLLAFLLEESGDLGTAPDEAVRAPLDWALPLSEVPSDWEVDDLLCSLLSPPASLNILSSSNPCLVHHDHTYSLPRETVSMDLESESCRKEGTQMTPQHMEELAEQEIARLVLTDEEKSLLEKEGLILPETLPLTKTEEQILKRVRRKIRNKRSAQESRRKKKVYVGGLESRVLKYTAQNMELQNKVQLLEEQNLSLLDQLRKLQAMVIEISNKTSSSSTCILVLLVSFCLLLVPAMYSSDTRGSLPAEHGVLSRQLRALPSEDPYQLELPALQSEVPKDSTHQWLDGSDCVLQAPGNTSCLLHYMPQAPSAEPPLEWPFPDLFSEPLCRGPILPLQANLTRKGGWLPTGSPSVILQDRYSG
# B3: Isoform 1 of Nuclear RNA export factor 3 (Homo sapiens), Q9H4D5-1 (parent)
# chain: MSLPSGHTTGHTDQVVQRRARCWDIYQRRFSSRSEPVNPGMHSSSHQQQDGDAAMHGAHMDSPVRYTPYTISPYNRKGSFRKQDQTHVNMEREQKPPERRMEGNMPDGTLGSWFKITVPFGIKYNEKWLLNLIQNECSVPFVPVEFHYENMHASFFVENASIAYALKNVSGKIWDEDNEKISIFVNPAGIPHFVHRELKSEKVEQIKLAMNQQCDVSQEALDIQRLPFYPDMVNRDTKMASNPRKCMAASLDVHEENIPTVMSAGEMDKWKGIEPGEKCADRSPVCTTFSDTSSNINSILELFPKLLCLDGQQSPRATLCGTEAHKRLPTCKGSFFGSEMLKNLVLQFLQQYYLIYDSGDRQGLLSAYHDEACFSLSIPFNPEDSAPSSFCKFFKDSRNIKILKDPYLRGELLKHTKLDIVDSLSALPKTQHDLSSFLVDMWYQTEWMLCFSVNGVFKEVEGQSQGSVLAFTRTFIATPGSSSSLCIVNDKLFVRDTSHQGTQSALFTLVPTAFSSSVPAFSQEQQKMLPS
# partner: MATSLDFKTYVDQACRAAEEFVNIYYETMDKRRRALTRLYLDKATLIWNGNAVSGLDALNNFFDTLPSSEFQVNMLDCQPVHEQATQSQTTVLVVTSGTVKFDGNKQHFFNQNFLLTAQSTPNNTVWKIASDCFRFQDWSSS
# B4: Seipin (Homo sapiens), Q96G97-4 (parent)
# chain: MSTEKVDQKEEAGEKEVCGDQIKGPDKEEEPPAAASHGQGWRPGGRAARNARPEPGARHPALPAMVNDPPVPALLWAQEVGQVLAGRARRLLLQFGVLFCTILLLLWVSVFLYGSFYYSYMPTVSHLSPVHFYYRTDCDSSTTSLCSFPVANVSLTKGGRDRVLMYGQPYRVTLELELPESPVNQDLGMFLVTISCYTRGGRIISTSSRSVMLHYRSDLLQMLDTLVFSSLLLFGFAEQKQLLEVELYADYRENSYVPTTGAIIEIHSKRIQLYGAYLRIHAHFTGLRYLLYNFPMTCAFIGVASNFTFLSVIVLFSYMQWVWGGIWPRHRFSLQVNIRKRDNSRKEVQRRISAHQPGPEGQEESTPQSDVTEDGESPEDPSGTEGQLSEEEKPDQQPLSGEEELEPEASDGSGSWEDAALLTEANLPAPAPASASAPVLETLGSSEPAGGALRQRPTCSSS
# B5: KH domain-containing, RNA-binding, signal transduction-associated protein 2 (Homo sapiens), Q5VWX1 (parent)
# chain: MEEEKYLPELMAEKDSLDPSFVHASRLLAEEIEKFQGSDGKKEDEEKKYLDVISNKNIKLSERVLIPVKQYPKFNFVGKLLGPRGNSLKRLQEETGAKMSILGKGSMRDKAKEEELRKSGEAKYAHLSDELHVLIEVFAPPGEAYSRMSHALEEIKKFLVPDYNDEIRQEQLRELSYLNGSEDSGRGRGIRGRGIRIAPTAPSRGRGGAIPPPPPPGRGVLTPRGSTVTRGALPVPPVARGVPTPRARGAPTVPGYRAPPPPAHEAYEEYGYDDGYGGEYDDQTYETYDNSYATQTQSVPEYYDYGHGVSEDAYDSYAPEEWATTRSSLKAPPQRSARGGYREHPYGRY
# B6: Paraneoplastic antigen Ma2 (Homo sapiens), Q9UL42 (parent)
# chain: MALALLEDWCRIMSVDEQKSLMVTGIPADFEEAEIQEVLQETLKSLGRYRLLGKIFRKQENANAVLLELLEDTDVSAIPSEVQGKGGVWKVIFKTPNQDTEFLERLNLFLEKEGQTVSGMFRALGQEGVSPATVPCISPELLAHLLGQAMAHAPQPLLPMRYRKLRVFSGSAVPAPEEESFEVWLEQATEIVKEWPVTEAEKKRWLAESLRGPALDLMHIVQADNPSISVEECLEAFKQVFGSLESRRTAQVRYLKTYQEEGEKVSAYVLRLETLLRRAVEKRAIPRRIADQVRLEQVMAGATLNQMLWCRLRELKDQGPPPSFLELMKVIREEEEEEASFENESIEEPEERDGYGRWNHEGDD
# partner: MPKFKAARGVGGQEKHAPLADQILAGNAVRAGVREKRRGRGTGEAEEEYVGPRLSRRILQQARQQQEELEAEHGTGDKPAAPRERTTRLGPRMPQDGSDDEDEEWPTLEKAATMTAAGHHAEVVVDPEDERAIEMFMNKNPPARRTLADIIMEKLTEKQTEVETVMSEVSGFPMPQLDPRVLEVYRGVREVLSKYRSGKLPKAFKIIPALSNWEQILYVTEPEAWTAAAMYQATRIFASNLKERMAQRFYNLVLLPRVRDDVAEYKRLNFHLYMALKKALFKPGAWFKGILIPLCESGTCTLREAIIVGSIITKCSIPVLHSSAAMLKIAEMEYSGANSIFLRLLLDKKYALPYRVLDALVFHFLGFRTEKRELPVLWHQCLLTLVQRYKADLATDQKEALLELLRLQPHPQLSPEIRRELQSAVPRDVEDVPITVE
# B7: DCC-interacting protein 13-alpha (Homo sapiens), Q9UKG1 (parent)
# chain: MPGIDKLPIEETLEDSPQTRSLLGVFEEDATAISNYMNQLYQAMHRIYDAQNELSAATHLTSKLLKEYEKQRFPLGGDDEVMSSTLQQFSKVIDELSSCHAVLSTQLADAMMFPITQFKERDLKEILTLKEVFQIASNDHDAAINRYSRLSKKRENDKVKYEVTEDVYTSRKKQHQTMMHYFCALNTLQYKKKIALLEPLLGYMQAQISFFKMGSENLNEQLEEFLANIGTSVQNVRREMDSDIETMQQTIEDLEVASDPLYVPDPDPTKFPVNRNLTRKAGYLNARNKTGLVSSTWDRQFYFTQGGNLMSQARGDVAGGLAMDIDNCSVMAVDCEDRRYCFQITSFDGKKSSILQAESKKDHEEWICTINNISKQIYLSENPEETAARVNQSALEAVTPSPSFQQRHESLRPAAGQSRPPTARTSSSGSLGSESTNLAALSLDSLVAPDTPIQFDIISPVCEDQPGQAKAFGQGGRRTNPFGESGGSTKSETEDSILHQLFIVRFLGSMEVKSDDHPDVVYETMRQILAARAIHNIFRMTESHLLVTCDCLKLIDPQTQVTRLTFPLPCVVLYATHQENKRLFGFVLRTSSGRSESNLSSVCYIFESNNEGEKICDSVGLAKQIALHAELDRRASEKQKEIERVKEKQQKELNKQKQIEKDLEEQSRLIAASSRPNQASSEGQFVVLSSSQSEESDLGEGGKKRESEA
# Variants of: B1
# Conditions: with pch2_human TRIP13, Q15645
row,Variant,effect of a mutation on the interaction
1,R255H,with no effect

# Variants of: B2
# Conditions: with creb3_human CREB3, O43889
row,Variant,effect of a mutation on the interaction
1,R150Q,with no effect

# Variants of: B3
# Conditions: with nxt2_human NXT2, Q9NPJ8
row,Variant,effect of a mutation on the interaction
1,T9K,with no effect

# Variants of: B3
# Conditions: with nxt2_human NXT2, Q9NPJ8
# Remark: another data set of the same source
row,Variant,effect of a mutation on the interaction
1,R409W,disrupting interaction strength

# Variants of: B4
# Conditions: with bscl2_human BSCL2, Q96G97
row,Variant,effect of a mutation on the interaction
1,D20E,with no effect

# Variants of: B4
# Conditions: with tmm19_human TMEM19, Q96HH6
# tmm19_human TMEM19, Q96HH6, sequence (Q96HH6 whole entry): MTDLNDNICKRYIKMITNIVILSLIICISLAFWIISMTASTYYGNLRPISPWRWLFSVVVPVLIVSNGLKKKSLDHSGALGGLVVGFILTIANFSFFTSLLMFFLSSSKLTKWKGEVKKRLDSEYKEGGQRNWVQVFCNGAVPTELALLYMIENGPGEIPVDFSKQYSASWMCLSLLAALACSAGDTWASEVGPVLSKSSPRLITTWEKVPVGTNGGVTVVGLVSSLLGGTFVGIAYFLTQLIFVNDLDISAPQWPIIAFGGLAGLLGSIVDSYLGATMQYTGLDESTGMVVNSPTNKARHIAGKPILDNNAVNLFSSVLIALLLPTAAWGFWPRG
row,Variant,effect of a mutation on the interaction
1,D20E,with no effect

# Variants of: B5
# Conditions: with ews_human EWSR1, Q01844
# ews_human EWSR1, Q01844, sequence (Q01844 whole entry): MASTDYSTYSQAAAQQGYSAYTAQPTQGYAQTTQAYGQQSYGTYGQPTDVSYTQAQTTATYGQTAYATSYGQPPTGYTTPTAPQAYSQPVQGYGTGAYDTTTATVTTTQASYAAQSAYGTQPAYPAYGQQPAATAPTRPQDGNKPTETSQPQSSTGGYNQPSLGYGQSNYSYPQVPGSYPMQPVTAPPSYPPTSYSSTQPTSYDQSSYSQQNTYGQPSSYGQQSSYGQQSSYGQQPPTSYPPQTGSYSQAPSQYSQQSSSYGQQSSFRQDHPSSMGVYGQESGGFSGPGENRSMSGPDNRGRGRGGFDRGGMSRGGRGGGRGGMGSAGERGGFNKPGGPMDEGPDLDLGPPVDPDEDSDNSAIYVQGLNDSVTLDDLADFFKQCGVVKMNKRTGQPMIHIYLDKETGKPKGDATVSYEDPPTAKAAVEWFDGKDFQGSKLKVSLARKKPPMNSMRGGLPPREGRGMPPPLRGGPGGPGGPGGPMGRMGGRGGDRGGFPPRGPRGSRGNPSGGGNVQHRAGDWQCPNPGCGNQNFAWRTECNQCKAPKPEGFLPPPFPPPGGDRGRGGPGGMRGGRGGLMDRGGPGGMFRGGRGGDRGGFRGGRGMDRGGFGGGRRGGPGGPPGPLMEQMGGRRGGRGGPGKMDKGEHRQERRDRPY
row,Variant,effect of a mutation on the interaction
1,P333L,with no effect

# Variants of: B5
# Conditions: with ptk6_human PTK6, Q13882
row,Variant,effect of a mutation on the interaction
1,P333L,with no effect

# Variants of: B5
# Conditions: with hbaz_human HBZ
row,Variant,effect of a mutation on the interaction
1,P333L,with no effect

# Variants of: B6
# Conditions: with byst_human BYSL
row,Variant,effect of a mutation on the interaction
1,E186K,with no effect

# Variants of: B7
# Conditions: with traf2_human TRAF2, Q12933
# traf2_human TRAF2, Q12933, sequence (Q12933 whole entry): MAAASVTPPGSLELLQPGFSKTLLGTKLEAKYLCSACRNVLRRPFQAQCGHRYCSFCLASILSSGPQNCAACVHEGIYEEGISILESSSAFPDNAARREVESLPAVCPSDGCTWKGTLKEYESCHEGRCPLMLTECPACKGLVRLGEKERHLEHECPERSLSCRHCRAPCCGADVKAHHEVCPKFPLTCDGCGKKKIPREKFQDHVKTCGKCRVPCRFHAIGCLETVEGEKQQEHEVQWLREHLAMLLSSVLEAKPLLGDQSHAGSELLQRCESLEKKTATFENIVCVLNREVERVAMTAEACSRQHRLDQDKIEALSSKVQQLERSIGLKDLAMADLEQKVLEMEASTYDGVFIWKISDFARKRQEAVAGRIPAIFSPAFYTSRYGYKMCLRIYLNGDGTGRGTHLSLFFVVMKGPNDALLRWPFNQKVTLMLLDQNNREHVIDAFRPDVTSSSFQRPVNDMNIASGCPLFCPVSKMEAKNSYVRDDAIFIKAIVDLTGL
row,Variant,effect of a mutation on the interaction
1,E643Q,with no effect

# Variants of: B7
# Conditions: with maga9_human MAGEA9, P43362
# maga9_human MAGEA9, P43362, sequence (P43362 whole entry): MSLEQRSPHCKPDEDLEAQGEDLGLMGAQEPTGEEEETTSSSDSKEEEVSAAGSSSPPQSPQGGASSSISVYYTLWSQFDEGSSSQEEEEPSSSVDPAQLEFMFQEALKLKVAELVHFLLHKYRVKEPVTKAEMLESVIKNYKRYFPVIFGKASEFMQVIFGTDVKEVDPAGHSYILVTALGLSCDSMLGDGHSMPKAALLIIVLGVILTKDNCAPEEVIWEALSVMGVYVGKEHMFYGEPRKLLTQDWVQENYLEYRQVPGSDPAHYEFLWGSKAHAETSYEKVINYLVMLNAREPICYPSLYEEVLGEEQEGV
row,Variant,effect of a mutation on the interaction
1,E643Q,with no effect
